Target: KS3AT3 (homodimeric KS-AT didomain fragment of DEBS module 3)
Test: cryo-EM structure

percent of KS3AT3 homodimer particles with one ACP (% of particles): 50.3
percent of KS3AT3 homodimer particles with two ACPs (% of particles): 24.7
percent of KS3AT3 homodimer particles with zero ACPs (% of particles): 25
Substance: ACP3 (standalone acyl carrier protein of DEBS module 3), holo form (domain or fragment)

— paper PMC11909739
